Patent publication US20020099179A1

Target: human CD4 antigen (human) (UniProt P01730)
Assay: competition with F1-OKT4A tracer on HPB-ALL cells, flow cytometry

Work on “chimeric OKT4A (chimeric light chain and chimeric heavy chain) (antibody)” yielded a Log conc. competitor (pM) at 50% inhibition of 2.9 log pM.
With murine OKT4A (antibody) the Log conc. competitor (pM) at 50% inhibition was 2.4 log pM.
